# Experimental data from article PMC4887914, “The Sp1-mediaded allelic regulation of MMP13 expression by an ESCC susceptibility SNP rs2252070”.
# Target: Sp1 (UniProt P08047 2-785)
# Assay: EMSA; recombinant Sp1; supershift with Sp1 antibody; LightShift Chemiluminescent EMSA kit (Pierce), 25 °C, 20 min, 6% PAGE; 100-fold unlabeled competitor; buffer, salt and pH not stated
# Details: protein: commercial; label: 3' biotin; blunt
# Sp1, sequence (P08047 2-785): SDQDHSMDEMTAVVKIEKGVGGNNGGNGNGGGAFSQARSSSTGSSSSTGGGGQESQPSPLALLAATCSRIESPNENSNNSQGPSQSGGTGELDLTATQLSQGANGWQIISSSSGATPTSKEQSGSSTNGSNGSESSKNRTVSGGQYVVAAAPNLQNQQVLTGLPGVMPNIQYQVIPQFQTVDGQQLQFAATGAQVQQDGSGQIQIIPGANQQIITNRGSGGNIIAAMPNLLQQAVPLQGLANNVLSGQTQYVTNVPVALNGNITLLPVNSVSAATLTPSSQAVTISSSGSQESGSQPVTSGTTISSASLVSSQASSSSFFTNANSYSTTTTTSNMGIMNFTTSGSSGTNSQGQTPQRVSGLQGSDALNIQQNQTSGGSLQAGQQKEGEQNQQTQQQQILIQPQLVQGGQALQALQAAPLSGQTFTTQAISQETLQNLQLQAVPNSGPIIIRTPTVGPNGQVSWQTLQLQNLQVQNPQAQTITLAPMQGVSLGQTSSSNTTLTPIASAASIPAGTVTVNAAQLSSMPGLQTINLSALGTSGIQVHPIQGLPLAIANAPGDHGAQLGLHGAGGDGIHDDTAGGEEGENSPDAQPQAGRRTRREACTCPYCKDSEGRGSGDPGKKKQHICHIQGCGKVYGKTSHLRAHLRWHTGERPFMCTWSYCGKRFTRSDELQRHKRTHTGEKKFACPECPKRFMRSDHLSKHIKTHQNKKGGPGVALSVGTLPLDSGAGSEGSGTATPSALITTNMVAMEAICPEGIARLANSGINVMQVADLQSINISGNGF
binder,measurement,value
MMP13 rs2252070G probe (dsDNA) DNA 1: CCTTCAAGTGACTGGGAAGTGGAAACCT DNA 2: AGGTTTCCACTTCCCAGTCACTTGAAGG,binding result,binds
